This data set has as its target T1, Fur (6xHis-tagged) (Salmonella enterica serovar Infantis 119944) (UniProt A0A4Z0KGQ7).
T1 sequence: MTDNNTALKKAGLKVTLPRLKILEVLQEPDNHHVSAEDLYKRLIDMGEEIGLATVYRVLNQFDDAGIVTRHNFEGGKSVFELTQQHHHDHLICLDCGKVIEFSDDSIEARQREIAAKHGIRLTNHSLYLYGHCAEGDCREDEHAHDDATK
In words: EMSA.

On to “CCGGGGTCGCGCCCCCATAAACGCCTCCCTGACAGAGGCCCGGATACCCCATCCGGGCCTCTGTTCTTTCCGCCTGTTACCAACCCGAAACGGGCATAAATAAACCCGTTTCGGGTAGCATACAATTGTTAATAATTATTATTCTCATATGAGCAATGCTTTTCGGTAAGACGTGCCATCAGGAGGAAGA (double strand) [irp2 promoter (pESI)]”, for which the binding entry is on record as “binds”.

These data come from paper PMC11225919.
